According to patent US20050238723A1, “Method of producing hydroxyalkyl starch derivatives” (priority 2002, published 2005):

Tested on: normocythaemic mouse
Experiment: EPO-bioassay in the normocythaemic mouse system (European Pharmacopeia)
Format: in vivo
Protocol: Quantitative determination of EPO protein was performed by measuring UV absorption at 280 nm according to the Eur. Phar. (European Pharmacopeia 4, Monography January 2002: 1316: erythropoietin concentrated solution) in a cuvette with 1 cm path length. In addition, EPO was quantitated by applying a RP-HPLC method using a RP-C4 column (Vydac Protein C4, Cat.# 214TP5410, Grace Vydac, Calif., US); the HPLC method was calibrated using the erythropoietin BRP 1 reference standard (European Pharmacopeia, Conseil de l'Europe B.P. 907-F67029, Strasbourg Cedex 1).
The EPO-bioassay in the normocythaemic mouse system indicates was performed according to the procedures described in the European Pharmacopeia; the laboratory that carried out the EPO assay was using the International BRP EPO reference standard preparation. For the HES-modified EPO A2 preparation a mean value for the specific activity of 294,600 units per mg EPO of protein was determined indicating an approximately 3-fold higher specific activity when compared to the International BRP EPO reference standard preparation that was included in the samples sent for activity assays.
In vivo activity determinations are performed in normocythemic mice by measuring the increase of reticulocytes after 4 days after animals received the foreseen dose of EPO or modified EPO forms. Assays are performed using the BRP EPO standard which is calibrated against the WHO EPO standard in the polycythemic mouse assay. EPO samples are diluted in phosphate buffered saline containing 1 mg/ml of bovine serum albumin (Sigma).
0.5 ml of the EPO test solution in Dulbecco's buffered saline (corresponding to an EPO protein equivalent of a 100, 80, 40 or 20 IU/ml of the BRP standard EPO) are infected subcutaneously per animal. Blood samples are taken after 4 days after injection and reticulocytes are stained with acridine orange; quantitation of reticulocytes is performed by flow-cytometry by counting a total of 30,000 blood cells within 5 hours after the blood sample was taken (see Ph. Eur, 2000, Erythropoietini solutio concentrata, 1316, pages 780-785) and European Pharmacopoeia (1996/2000, attachment 2002).

[1] = sample diluted with 4 volume of PBS

BRP EPO standard: erythropoietin BRP reference standard of the European Pharmacopeia [reference compound]
Calculated specific activity of EPO sample (basedon A280 nm and RP-HPLC determination) (sample as such): 86,702 U/mg | Calculated specific activity of EPO sample (basedon A280 nm and RP-HPLC determination) [1]: 81,200 U/mg

Control EPO K2: control incubation of unmodified EPO-GT-1 with unmodified HES; Q-Sepharose fraction eluted with high salt
Calculated specific activity of EPO sample (basedon A280 nm and RP-HPLC determination) (sample as such): 121,410 U/mg | Calculated specific activity of EPO sample (basedon A280 nm and RP-HPLC determination) [1]: 114,100 U/mg
